Assay results from patent US20060286568A1.

Tests used:
eGFP-EAAT4 = assay: cell-based or functional assay
eGFP-EAAT3 = assay: cell-based or functional assay

myc-tagged mutant β-III spectrin with the 39 bp American SCA5 deletion (SP-Δ39; p.E532_M544del) (from UniProt O15020 2-2390)
% of diffraction spots not moving (TIRF microscopy, HEK293 cells) (eGFP-EAAT4): 67.5%

myc-tagged wildtype β-III spectrin (SP-WT) (from UniProt O15020 2-2390)
% of diffraction spots not moving (TIRF microscopy, HEK293 cells) (eGFP-EAAT3): 58.7% | % of diffraction spots not moving (TIRF microscopy, HEK293 cells) (eGFP-EAAT4): 94.2% | diffraction spots moving at or near the membrane (TIRF microscopy, HEK293 cells) (eGFP-EAAT4): 5%
